{
  "source": "IntAct's records for PubMed 24685146",
  "parents": {"B1": {"name": "Vinculin (Gallus gallus (Chicken)), P12003-1 (parent)", "chain": "MPVFHTRTIESILEPVAQQISHLVIMHEEGEVDGKAIPDLTAPVSAVQAAVSNLVRVGKETVQTTEDQILKRDMPPAFIKVENACTKLVRAAQMLQADPYSVPARDYLIDGSRGILSGTSDLLLTFDEAEVRKIIRVCKGILEYLTVAEVVETMEDLVTYTKNLGPGMTKMAKMIDERQQELTHQEHRVMLVNSMNTVKELLPVLISAMKIFVTTKNTKSQGIEEALKNRNFTVEKMSAEINEIIRVLQLTSWDEDAWASKDTEAMKRALALIDSKMNQAKGWLRDPNAPPGDAGEQAIRQILDEAGKAGELCAGKERREILGTCKTLGQMTDQLADLRARGQGATPMAMQKAQQVSQGLDLLTAKVENAARKLEAMTNSKQAIAKKIDAAQNWLADPNGGSEGEEHIRGIMSEARKVAELCEEPKERDDILRSLGEISALTAKLSDLRRHGKGDSPEARALAKQIATSLQNLQSKTNRAVANTRPVKAAVHLEGKIEQAQRWIDNPTVDDRGVGQAAIRGLVAEGRRLANVMMGPYRQDLLAKCDRVDQLAAQLADLAARGEGESPQARAIAAQLQDSLKDLKARMQEAMTQEVSDVFSDTTTPIKLLAVAATAPSDTPNREEVFEERAANFENHAARLGATAEKAAAVGTANKTTVEGIQATVKSARELTPQVVSAARILLRNPGNQAAYEHFETMKNQWIDNVEKMTGLVDEAIDTKSLLDASEEAIKKDLDKCKVAMANMQPQMLVAGATSIARRANRILLVAKREVENSEDPKFREAVKAASDELSKTISPMVMDAKAVAGNISDPGLQKSFLDSGYRILGAVAKVREAFQPQEPDFPPPPPDLEHLHLTDELAPPKPPLPEGEVPPPRPPPPEEKDEEFPEQKAGEAINQPMMMAARQLHDEARKWSSKGNDIIAAAKRMALLMAEMSRLVRGGSGNKRALIQCAKDIAKASDEVTRLAKEVAKQCTDKRIRTNLLQVCERIPTISTQLKILSTVKATMLGRTNISDEESEQATEMLVHNAQNLMQSVKETVREAEAASIKIRTDAGFTLRWVRKTPWYQ"}},
  "data": [
    {"variants_of": "B1", "settings": "with acts_rabit ACTA1, P68135", "values": [
      {"variant": "V1001A", "effect of a mutation on the interaction": "decreasing interaction strength"},
      {"variant": "I997A", "effect of a mutation on the interaction": "decreasing interaction strength"}
    ]}
  ]
}
